Experimental data as given in patent US20240228562A1, “NOVEL LIPOCALIN MUTEINS SPECIFIC FOR CONNECTIVE TISSUE GROWTH FACTOR (CTGF)” (PIERIS PHARMACEUTICALS GMBH, priority 2021, published 2024).

T1: CTGF (Homo sapiens, UniProt P29279)
T1 sequence (P29279 27-349): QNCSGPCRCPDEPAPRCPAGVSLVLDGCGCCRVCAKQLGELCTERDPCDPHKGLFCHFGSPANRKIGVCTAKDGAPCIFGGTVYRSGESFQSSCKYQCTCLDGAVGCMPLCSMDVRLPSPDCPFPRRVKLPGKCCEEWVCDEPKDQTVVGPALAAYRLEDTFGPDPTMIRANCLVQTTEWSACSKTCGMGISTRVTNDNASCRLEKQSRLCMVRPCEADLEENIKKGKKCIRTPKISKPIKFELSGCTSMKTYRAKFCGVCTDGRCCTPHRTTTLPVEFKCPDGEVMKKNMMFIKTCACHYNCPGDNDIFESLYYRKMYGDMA

T2: huCYR61 (Homo sapiens, UniProt O00622)
T2 sequence (O00622 25-381): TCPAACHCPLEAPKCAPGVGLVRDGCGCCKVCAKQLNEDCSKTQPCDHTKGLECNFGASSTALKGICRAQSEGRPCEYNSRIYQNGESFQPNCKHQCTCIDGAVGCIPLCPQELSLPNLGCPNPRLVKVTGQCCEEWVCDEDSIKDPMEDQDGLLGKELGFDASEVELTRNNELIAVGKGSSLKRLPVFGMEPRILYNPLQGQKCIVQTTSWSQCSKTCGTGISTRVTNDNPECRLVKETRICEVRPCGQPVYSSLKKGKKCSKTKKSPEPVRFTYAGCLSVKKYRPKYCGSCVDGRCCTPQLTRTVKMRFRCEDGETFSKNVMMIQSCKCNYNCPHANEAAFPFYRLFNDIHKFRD

T3: huWISP-1 (Homo sapiens, UniProt O95388)
T3 sequence (O95388 23-367): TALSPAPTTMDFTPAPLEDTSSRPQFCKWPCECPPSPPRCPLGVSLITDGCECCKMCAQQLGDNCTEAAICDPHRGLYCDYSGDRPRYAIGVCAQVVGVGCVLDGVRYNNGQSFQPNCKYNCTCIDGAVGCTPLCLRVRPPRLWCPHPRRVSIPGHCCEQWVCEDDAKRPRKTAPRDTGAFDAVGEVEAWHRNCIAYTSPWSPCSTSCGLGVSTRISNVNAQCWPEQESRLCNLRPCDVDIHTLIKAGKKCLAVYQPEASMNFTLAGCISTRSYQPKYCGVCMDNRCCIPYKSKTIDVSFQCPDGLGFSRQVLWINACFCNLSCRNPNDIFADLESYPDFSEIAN

B1: SEQ ID NO: 7: parent CTGF-binding hNGAL lipocalin mutein (protein)
chain: QDSTSDLIPAPPLSKVPLQQNFQDNQFHGKWYVVGLAGNYGLRTDKRPSKMFATIYELKEDKSYDVTSVRFEQERCHYTIRTFVPGSQPGEFTTGSIKSRPGQTSSLVRVVSTNYNQHAMVFFKSVIQNREYFAITLYGRTKELTSELKENFIRFSKSLGLPENHIVFPVPIDQCIDG
modifications: lipocalin mutein
B2: SEQ ID NO: 3: parent CTGF-binding hNGAL lipocalin mutein (protein)
chain: QDSTSDLIPAPPLSKVPLQQNFQDNQFHGKWYVVGRAGNNRLREDKDPPKMWATIYELKEDKSYNVTHVHFMTKKCRYIIDTFVPGSQPGEFTLGAIKSGPGMTSPLVRIVSTNYNQHAMVFFKWVNQNREWFTITLYGRTKELTSELKENFIRFSKSLGLPENHIVFPVPIDQCIDG
modifications: lipocalin mutein
B3: SEQ ID NO: 23: optimized CTGF-binding hNGAL lipocalin mutein (protein)
chain: QDSTSDLIPAPPLSKVPLQQNFQDNQFQGKWYVVGVAGNAILRPDKQPAKMFATIYELKEDKSYDVTSVRFEAKSCKYTIKTFVPGSQPGEFTSGQIKSAPGQTSTLVRVVSTNYNQHAMVFFKHVSQNREIFVITLYGRTKELTSELKENFIRFSKSLGLPENHIVFPVPIDQCIDG
modifications: lipocalin mutein
B4: SEQ ID NO: 15: optimized CTGF-binding hNGAL lipocalin mutein (protein)
chain: QDSTSDLIPAPPLSKVPLQQNFQDNQFQGKWYVVGLAGNAILREDKQPAKMFATIYELKEDKSYDVTSVRFEAKSCKYTIKTFVPGSQPGEFTAGYIKSAPGQTSTLVRVVSTNYNQHAMVFFKHVTQNREIFVITLYGRTKELTSELKENFIRFSKSLGLPENHIVFPVPIDQCIDG
modifications: lipocalin mutein
B5: SEQ ID NO: 9: parent CTGF-binding hNGAL lipocalin mutein (protein)
chain: QDSTSDLIPAPPLSKVPLQQNFQDNQFHGKWYVVGLAGNKILRIDKQPAKMFATIYELKEDKSYDVTSVRFEARSCSYTIKTFVPGSQPGEFTAGNIKSAPGQTSTLVRVVSTNYNQHAMVFFKHVSQNRETFVITLYGRTKELTSELKENFIRFSKSLGLPENHIVFPVPIDQCIDG
modifications: lipocalin mutein
B6: SEQ ID NO: 74: fusion protein comprising two CTGF-binding lipocalin muteins (protein)
chain: QDSTSDLIPAPPLSKVPLQQNFQDNQFQGKWYVVGLAGNAILREDKQPAKMFATIYELKEDKSYDVTSVRFEAKSCKYTIKTFVPGSQPGEFTAGYIKSAPGQTSTLVRVVSTNYNQHAMVFFKHVTQNREIFVITLYGRTKELTSELKENFIRFSKSLGLPENHIVFPVPIDQCIDGGGGGSGGGGSGGGGSQDSTSDLIPAPPLSKVPLQQNFQDNQFQGKWYVVGWAGNVKLREDKQPQKMSATIYELKEDKSYDVTEVVFEQKKCHYIIKTFVPGSQPGEFTAGDIKSPPGYTSSLVRVVSTNYNQHAMVFFKKVSQNREFFWITLYGRTKELTSELKENFIRFSKSLGLPENHIVFPVPIDQCIDG
modifications: fusion protein
B7: SEQ ID NO: 25: parent CTGF-binding hNGAL lipocalin mutein (protein)
chain: QDSTSDLIPAPPLSKVPLQQNFQDNQFHGKWYVVGMAGNFRLREDKDPSKMGATIYELKEDKSYNVTQVQFDDKKCLYVIETFVPGSQPGEFTLGAIKSFPGFTSQLVRVVSTNYNQHAMVFFKKVYQNREVFWITLYGRTKELTSELKENFIRFSKSLGLPENHIVFPVPIDQCIDG
modifications: lipocalin mutein
B8: SEQ ID NO: 29: parent CTGF-binding hNGAL lipocalin mutein (protein)
chain: QDSTSDLIPAPPLSKVPLQQNFQDNQFHGKWYVVGWAGNIKLREDKDPFKMSATIYELKEDKSYNVTEVVFEQKKCHYIIKTFVPGSQPGEFTLGDIKSPPGETSSLVRVVSTNYNQHAMVFFKKVFQNREFFWITLYGRTKELTSELKENFIRFSKSLGLPENHIVFPVPIDQCIDG
modifications: lipocalin mutein

Legend:
[1] = Thermal stability assessment by nanoDSC; type: physicochemical; conditions: 1 mg/mL in PBS, scan 25-100° C. at 1° C./min; for TM: major transition
In short: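 CTGF-specific lipocalin muteins at 1 mg/mL in PBS scanned from 25 to 100° C at 1° C/min by capillary nano-DSC. Where several transitions occur, the Tm of the major unfolding event is reported, along with onset temperature. Some muteins were expressed in E. coli, others in CHO cells.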

human CTGF [2] = target: T4, human CTGF (Homo sapiens, UniProt P29279); assay: SPR binding kinetics and affinity, human CTGF; conditions: 25° C., 1:1 binding model
T4 construct: purchased Creative Biomart
In short: (§1)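 Biacore SPR at 25 °C; CTGF either Fc-captured via anti-human IgG (HBS-EP+) or amine-coupled to CM5 (300–1100 RU). Muteins injected 180 s contact, 900–3600 s dissociation, 30 μL/min.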

human CTGF [3] = target: T5, human CTGF (Homo sapiens, UniProt P29279, H83D); assay: SPR binding kinetics and affinity, human CTGF; conditions: 25° C., 1:1 binding model
T5 construct: purchased Creative Biomart
In short: as §1

CTGF = target: T1, CTGF; assay: Specificity ELISA (CCN proteins), human CTGF; type: binding; conditions: coated 1 μg/ml, muteins from 1000 nM
Description: (§2) Binding of muteins to closely related proteins of CTGF was tested by an ELISA assay. In detail, a 384-well plate suitable for fluorescence measurements (Greiner FLUOTRAC™ 600, black flat bottom, high-binding) was coated with 20 μl of human CTGF or the other members of the CCN protein family at a concentration of 1 μg/ml in PBS over night at 4° C. After washing with PBS with 0.05% Tween 20, wells were blocked with 100 μl blocking buffer containing 0.1% Tween 20 and 2% BSA (PBS-T/BSA) for 1 h at room temperature. 20 μl of serially diluted muteins starting at 1000 nM were incubated in PBS-T/BSA for 1 h at room temperature (RT).
(§3) The residual supernatants were discarded and 20 μl HRP-labeled anti-NGAL or anti-Strep-Tag antibody was added at a predetermined optimal concentration in PBS-T/BSA and incubated for 1 h at RT. After washing, 20 μl fluorogenic HRP substrate (QuantaBlu, Thermo) was added to each well, and the reaction was allowed to proceed for 2 to 60 minutes. The fluorescence intensity of every well on the plate was read using a fluorescence microplate reader (Tecan). When the signal for human CTGF approached saturation, the cross reactivity to the other proteins was assessed.

huCYR61 = target: T2, huCYR61; assay: Specificity ELISA (CCN proteins), huCYR61; type: binding; conditions: coated 1 μg/ml; assessed when human CTGF signal approached saturation
Description: as §2, §3

huWISP-1 = target: T3, huWISP-1; assay: Specificity ELISA (CCN proteins), huWISP-1; type: binding; conditions: coated 1 μg/ml; assessed when human CTGF signal approached saturation
Description: as §2, §3

T4 sequence (P29279 with tags, fused parts or gaps H83D): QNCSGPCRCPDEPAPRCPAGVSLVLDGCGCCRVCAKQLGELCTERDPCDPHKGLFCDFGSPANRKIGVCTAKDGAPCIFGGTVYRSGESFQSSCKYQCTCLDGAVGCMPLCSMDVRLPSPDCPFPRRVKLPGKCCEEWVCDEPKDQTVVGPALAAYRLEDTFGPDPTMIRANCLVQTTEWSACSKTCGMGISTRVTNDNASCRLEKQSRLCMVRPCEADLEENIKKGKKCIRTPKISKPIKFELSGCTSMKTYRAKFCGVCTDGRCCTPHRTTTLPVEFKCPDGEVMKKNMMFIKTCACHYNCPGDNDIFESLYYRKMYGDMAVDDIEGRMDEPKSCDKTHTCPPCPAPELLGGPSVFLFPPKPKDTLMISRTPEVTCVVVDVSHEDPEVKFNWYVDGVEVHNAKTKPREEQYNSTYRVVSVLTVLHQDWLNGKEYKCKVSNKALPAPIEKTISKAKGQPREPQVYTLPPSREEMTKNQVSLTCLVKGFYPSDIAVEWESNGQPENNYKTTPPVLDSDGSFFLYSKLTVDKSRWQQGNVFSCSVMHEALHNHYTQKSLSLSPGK
T5 sequence (P29279 with tags, fused parts or gaps H83D): as above

Molecule	TM [1] [°C]	human CTGF koff (human CTGF [2]) [s⁻¹]	Kd (human CTGF [3]) [nM]	human CTGF kon (human CTGF [3]) [M⁻¹ s⁻¹]	ELISA binding to HUMAN CTGF (CTGF)	ELISA binding to huCYR61 (huCYR61)	ELISA binding to huWISP-1 (huWISP-1)	ONSET MELTING [1] [°C]
B1	65	0.00587	60.2	97600	Binding	No binding	No binding	–
B2	58	0.00749	37.5	200000	Binding	No binding	No binding	–
B3	71	9.42e-06	–	122000	Binding	No binding	No binding	55
B4	73	4.47e-05	–	81700	Binding	No binding	No binding	59
B5	64	0.00102	12.8	79800	Binding	No binding	No binding	–
B6	72	–	–	–	Binding	No binding	No binding	62
B7	66	0.000248	9.27	26800	Binding	No binding	No binding	–
B8	76	0.00112	11.2	100000	Binding	No binding	No binding	–
